Measurements reported in article PMC8537613.

Assays:
Experiment in all cases: ELISA
[1] = target: RSV FxG (respiratory syncytial virus A2 | respiratory syncytial virus (strain not stated for G)) (UniProt P03423)
RSV sG = target: RSV sG
[2] = target: RSV F clamp (respiratory syncytial virus A2) (UniProt P03420)
[3] = target: NiV FxG (Nipah virus (Malaysia strain) | Nipah virus) (UniProt Q9IH63)
Sequence of NiV FxG (Nipah virus (Malaysia strain) | Nipah virus) (Q9IH63 whole entry, looked up): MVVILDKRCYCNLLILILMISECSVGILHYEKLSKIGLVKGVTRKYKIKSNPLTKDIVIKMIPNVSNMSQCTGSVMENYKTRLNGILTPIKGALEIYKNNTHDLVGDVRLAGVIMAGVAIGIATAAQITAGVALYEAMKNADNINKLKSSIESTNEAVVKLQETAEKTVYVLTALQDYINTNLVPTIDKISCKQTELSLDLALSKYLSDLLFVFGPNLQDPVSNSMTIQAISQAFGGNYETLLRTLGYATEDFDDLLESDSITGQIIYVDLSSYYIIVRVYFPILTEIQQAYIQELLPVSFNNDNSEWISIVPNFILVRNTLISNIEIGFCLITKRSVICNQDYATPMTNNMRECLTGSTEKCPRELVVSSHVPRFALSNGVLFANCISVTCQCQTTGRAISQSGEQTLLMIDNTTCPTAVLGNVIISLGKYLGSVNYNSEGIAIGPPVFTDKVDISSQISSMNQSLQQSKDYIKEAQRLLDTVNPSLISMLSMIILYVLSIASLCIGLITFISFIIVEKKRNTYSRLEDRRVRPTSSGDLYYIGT

Sequence of RSV F clamp (respiratory syncytial virus A2) (P03420 whole entry, looked up): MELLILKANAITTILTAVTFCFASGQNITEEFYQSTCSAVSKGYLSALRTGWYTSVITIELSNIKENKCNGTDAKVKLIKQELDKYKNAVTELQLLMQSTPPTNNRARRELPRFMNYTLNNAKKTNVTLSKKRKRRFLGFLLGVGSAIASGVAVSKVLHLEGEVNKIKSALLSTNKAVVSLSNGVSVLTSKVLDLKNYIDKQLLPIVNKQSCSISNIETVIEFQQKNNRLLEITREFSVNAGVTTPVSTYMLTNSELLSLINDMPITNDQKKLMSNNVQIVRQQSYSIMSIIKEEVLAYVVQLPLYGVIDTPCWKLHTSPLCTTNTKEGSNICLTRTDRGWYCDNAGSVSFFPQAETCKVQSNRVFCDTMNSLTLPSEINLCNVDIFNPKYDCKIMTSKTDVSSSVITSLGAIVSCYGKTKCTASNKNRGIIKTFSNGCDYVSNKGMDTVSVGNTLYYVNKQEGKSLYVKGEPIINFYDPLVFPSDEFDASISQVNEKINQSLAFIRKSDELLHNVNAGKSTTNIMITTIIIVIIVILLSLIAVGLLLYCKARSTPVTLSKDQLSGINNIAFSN
Sequence of RSV FxG (respiratory syncytial virus A2 | respiratory syncytial virus (strain not stated for G)) (P03423 whole entry): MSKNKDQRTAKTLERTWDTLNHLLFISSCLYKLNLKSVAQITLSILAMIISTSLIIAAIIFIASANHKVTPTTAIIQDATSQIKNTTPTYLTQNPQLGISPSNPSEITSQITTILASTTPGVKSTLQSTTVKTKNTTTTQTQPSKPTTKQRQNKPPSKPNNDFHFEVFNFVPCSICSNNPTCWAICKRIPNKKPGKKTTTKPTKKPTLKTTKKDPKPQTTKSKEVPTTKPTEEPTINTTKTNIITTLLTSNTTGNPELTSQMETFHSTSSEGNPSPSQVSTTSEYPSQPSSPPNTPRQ

2D10 gave a Kd [1] of 410 pM and a Kd (RSV sG) of 1290 pM.

For 3D3, the Kd [1] was 430 pM and the Kd (RSV sG) was 2110 pM.

In the case of D25, the Kd [2] is reported as 970 pM and the Kd [1] is reported as 480 pM.

In the case of MPE8, the Kd [2] is reported as 640 pM and the Kd [1] is reported as 420 pM.

Mota gave a Kd [2] of 210 pM and a Kd [1] of 260 pM.

m102.4 showed a Kd [3] of 170 pM.
